The record followed here is patent publication US20210238276A1 (INTEGRAL MOLECULAR, published 2021).

One assay concerns the target T1, hsGLUT4 Y159A (human, UniProt P14672 1-509).
T1 sequence: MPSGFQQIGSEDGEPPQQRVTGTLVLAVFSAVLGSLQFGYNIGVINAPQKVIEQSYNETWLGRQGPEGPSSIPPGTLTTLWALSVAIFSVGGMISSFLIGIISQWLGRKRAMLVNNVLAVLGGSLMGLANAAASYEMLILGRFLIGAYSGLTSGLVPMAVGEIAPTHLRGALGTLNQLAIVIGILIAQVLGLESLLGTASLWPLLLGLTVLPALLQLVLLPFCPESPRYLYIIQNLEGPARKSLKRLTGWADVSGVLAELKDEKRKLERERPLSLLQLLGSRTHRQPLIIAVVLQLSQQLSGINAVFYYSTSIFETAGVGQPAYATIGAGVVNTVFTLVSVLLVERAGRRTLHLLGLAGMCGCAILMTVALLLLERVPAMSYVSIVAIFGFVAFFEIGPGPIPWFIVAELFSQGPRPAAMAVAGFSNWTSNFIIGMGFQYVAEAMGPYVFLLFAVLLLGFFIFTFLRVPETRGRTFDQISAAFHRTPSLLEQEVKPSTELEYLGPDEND
The experiment in a line: flow cytometry, alanine-scan library in HEK-293T, with cytochalasin B.

Another assay deals with T2, mouse GLUT4 (mmGLUT4) (mouse, UniProt P14142 1-509).
T2 construct: whole, on cells; Also tested as endogenous protein in murine 3T3-L1 adipocytes; also called endogenous GLUT4 of 3T3-L1 adipocytes
T2 sequence (looked up): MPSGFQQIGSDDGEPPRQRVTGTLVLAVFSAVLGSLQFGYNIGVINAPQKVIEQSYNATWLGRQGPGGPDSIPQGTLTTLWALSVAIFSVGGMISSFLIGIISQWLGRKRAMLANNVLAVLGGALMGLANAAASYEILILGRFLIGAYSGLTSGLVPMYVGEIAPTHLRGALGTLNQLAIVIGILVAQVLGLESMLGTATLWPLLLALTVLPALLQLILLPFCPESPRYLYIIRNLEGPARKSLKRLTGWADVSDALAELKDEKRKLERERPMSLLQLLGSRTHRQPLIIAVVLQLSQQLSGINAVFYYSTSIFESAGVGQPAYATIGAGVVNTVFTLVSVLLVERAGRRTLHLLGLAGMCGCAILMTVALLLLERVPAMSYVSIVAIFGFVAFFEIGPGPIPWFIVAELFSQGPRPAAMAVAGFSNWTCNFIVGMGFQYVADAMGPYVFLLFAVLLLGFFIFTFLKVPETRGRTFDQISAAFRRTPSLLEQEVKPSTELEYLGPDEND
The experiment in a line: immunofluorescence, surface of 3T3-L1 adipocytes (data not shown). How it is done: Adipocytes, between 7-8 days post-differentiation, were serum-starved for 3 hours in Dulbecco's modified Eagle's medium with […] bicarbonate and 20 mM HEPES pH 7.4, prior to stimulation for 20 minutes at 37° C. with or without 170 nM human insulin (Sigma Aldrich) prepared in the same media with 2% BSA. Adipocytes were washed twice with ice-cold PBS with calcium and magnesium (PBS+/+) and remained on ice for all subsequent steps.
Adipocytes were blocked with 10% Normal Goat Serum (NGS) in PBS+/+ for 30 minutes on ice before adding test antibodies at 10 ug/ml in 10% NGS. Primary antibodies were incubated for 2 hours, then washed 2× with PBS+/+. Cells were subsequently fixed for 5 minutes in 4% paraformaldehyde (PFA), washed 2× with PBS+/+, and then stained with secondary antibody (AF488 conjugated Goat anti-human, Jackson Immunoresearch) diluted 1:200 in 10% NGS. Secondary antibody was incubated for 1 hour, after washing 3× with PBS+/+. For intracellular staining, cells were fixed prior to the blocking step and permeabilized with 10% NGS containing 0.2% Saponin. The 1F8 antibody was used at 1 μg/ml, and detected using AF647-conjugated goat anti-mouse secondary antibody diluted 1:400 (Jackson Immunoresearch). Alexafluor 488 was visualized using the B-2EC cube with an exposure time of 1.5 seconds. Alexafluor 647 was visualized using the Cy5 cube with an exposure time of 2 seconds.

B1: AB102 (Fc fusion)
scFv: ALTQPSSVSANLGGTVKITCSGGGSYGYGWYQQKSPGSAPVTVIYSNDQRPSDIPSRFSGSKSGSTATLTITGVRAEDEAIYYCGSTDSDYVGIFGAGTTLTVLGQSSRSSGGGGSSGGGGSAVTLDESGGGLQTPGGTLSLVCKASGFDFSSYATIWVRQAPGKGLEWVAGISGTGTGSSTGYAPAVKGRATISRDNGQSTVRLQLNNLRAEDTGSYFCAKSTGYGDSWIYPDSIDAWGHGTEVIVSS
notes: also called MAb AB102; not shown: Fc fragment of human IgG1, cloned in frame with the scFv
B1 gave a % of binding to wild type GLUT4 in the assay with hsGLUT4 Y159A of 11%.

B2: AB105 (Fc fusion)
scFv: ALTQPSSVSANPGETVEITCSGDSSYYGWYQQKSPGSAPVTVIYANTNRPSDIPSRFSGSASGSTATLTITGVQAEDEAVYYCGSADSTYAGIFGAGTTLTVLGQSSRSSGGGGSSGGGGSAVTLDESGGGLQTPGGALSLICKASGFTFSSYTMNWVRQAPGKGLEWVGVISNSGRTTNYGAAVQGRATISRDNGQSTVRLQLNNLRAEDTGTYYCAKSSASASCAWWAGRSYPCSANRIDAWGHGTEVIVSS
notes: Bivalent scFv-Fc; also called MAb AB105; not shown: Fc fragment of human IgG1, cloned in frame with the scFv
As for B2, the binding result with mouse GLUT4 (mmGLUT4) is “binds”.
